According to publication PMC4188261:

Target: Burkholderia mallei BmaI1 acyl-homoserine lactone synthase (Burkholderia mallei ATCC23344)
Test: steady-state enzyme kinetics

“octanoyl-acyl carrier protein (E. coli ACP) (from UniProt P0A6A8 1-78) (natural protein)” gave a Kd of 125 nM.
